Assay results published in patent US20120316071A1 (published 2012).

How the values were obtained:
[1] = biological target: T1, rHuman IGF-1 sR, CF (R&D Systems Cat#391-GR) (human, UniProt P08069 31-932); assay: Multispot ECL (MSD), antigen spotted on plate, Fab 62.5 nM; blank spot 268
T1 construct: Bought recombinant soluble receptor; also called insulin-like growth factor-1 soluble receptor

[2] = biological target: T2, rHuman Erythropoietin R/Fc Chimera, CF (R&D Systems Cat#963-ER) (human, UniProt P19235 25-250); assay: as above
T2 construct: Bought recombinant protein; also called EPO R/Fc; Epo R; Fc part of the bought chimera not given
T2 sequence (looked up): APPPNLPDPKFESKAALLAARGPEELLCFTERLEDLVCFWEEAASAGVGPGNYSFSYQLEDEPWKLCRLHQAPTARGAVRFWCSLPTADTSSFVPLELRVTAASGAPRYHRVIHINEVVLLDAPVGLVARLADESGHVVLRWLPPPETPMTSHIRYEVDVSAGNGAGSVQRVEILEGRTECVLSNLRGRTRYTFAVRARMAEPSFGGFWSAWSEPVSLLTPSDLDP

[3] = biological target: T3, rHuman Notch-1/Fc Chimera, CF (R&D Systems Cat#3647-TK) (human, UniProt P46531 19-526); assay: as above
T3 construct: Bought recombinant protein; Fc part of the bought chimera not given

[4] = biological target: T4, Recombinant Human DLL4 (R&D Systems Cat#1506-D4/CF) (human, UniProt Q9NR61 27-524); assay: as above
T4 construct: Bought recombinant protein; also called rHuman DLL4; delta-like protein 4

[5] = biological target: T5, rHuman CD44/Fc Chimera, CF (R&D Systems Cat#3660-CD) (human, UniProt P16070 21-220); assay: MSD multispot ECL, antigen spotted on plate; Fab 0.03188 uM; blank spot 536
T5 construct: Bought recombinant protein; Fc part of the bought chimera not given

[6] = biological target: T6, rHuman EGF R/Fc Chimera, CF (R&D Systems Cat#344-ER) (human, UniProt P00533 25-645); assay: as above
T6 construct: Bought recombinant protein; also called epidermal growth factor receptor; Fc part of the bought chimera not given

[7] = biological target: T7, rHuman IGF-1 sR, (IGF-1 sR), CF (R&D Systems Cat#391-GR) (human, UniProt P08069 31-932); assay: MSD multispot ECL, antigen spotted on plate, Fab 88.1 nM; blank spot 301
T7 construct: Bought from R&D Systems and called a soluble receptor; also called insulin-like growth factor-1 soluble receptor

[8] = biological target: T8, rHuman HGF R/c-MET/Fc Chimera, CF (R&D Systems Cat#358-MT/CF) (human, UniProt P08581 25-932); assay: as above
T8 construct: Bought from R&D Systems; also called HGF R/Fc; hepatocyte growth factor receptor (HGF R/c-Met); not shown: Fc of the bought chimera

[9] = biological target: T9, rHuman CD44/Fc Chimera, CF (R&D Systems Cat#3660-CD) (human, UniProt P16070 21-220); assay: as above
T9 construct: Bought from R&D Systems; not shown: Fc of the bought chimera

[10] = biological target: T10, rHuman P-Cadherin/Fc Chimera, CF (R&D Systems Cat#861-PC) (human, UniProt P22223 108-654); assay: as above
T10 construct: Bought from R&D Systems; not shown: Fc of the bought chimera

[11] = biological target: T11, rHuman HGF R/c-MET/Fc Chimera, CF (R&D Systems Cat#358-MT/CF) (human, UniProt P08581 25-932); assay: ECL multispot (MSD) assay, spotted antigen; Fab 200.00 (head prints uM)
T11 construct: Bought recombinant protein; also called HGF R/Fc; Fc part of the bought chimera not given

[12] = biological target: T12, rHuman EGF R/Fc Chimera, CF (R&D Systems Cat#344-ER) (human, UniProt P00533 25-645); assay: as above
T12 construct: Bought recombinant protein; Fc part of the bought chimera not given

[13] = biological target: T13, rHuman IGF-1 sR, CF (R&D Systems Cat#391-GR) (human, UniProt P08069 31-932); assay: as above
T13 construct: Bought soluble receptor; The column head prints only 'IGF-1'; also called insulin-like growth factor-1 soluble receptor

[14] = biological target: T14, rHuman Notch-1/Fc Chimera, CF (R&D Systems Cat#3647-TK) (human, UniProt P46531 19-526); assay: as above
T14 construct: Bought recombinant protein; Fc part of the bought chimera not given

[15] = biological target: T15, Recombinant Human DLL4 (R&D Systems Cat#1506-D4/CF) (human, UniProt Q9NR61 27-524); assay: as above
T15 construct: Bought recombinant protein; also called delta-like protein 4

[16] = biological target: T16, rHuman ErbB2/Fc Chimera, CF (R&D Systems Cat#1129-ER) (human, UniProt P04626 23-652); assay: as above
T16 construct: Bought recombinant protein; Fc part of the bought chimera not given

[17] = biological target: T17, rHuman P-Cadherin/Fc Chimera, CF (R&D Systems Cat#861-PC) (human, UniProt P22223 108-654); assay: as above
T17 construct: Bought recombinant protein; Fc part of the bought chimera not given

[18] = biological target: T18, rHuman CD44/Fc Chimera, CF (R&D Systems Cat#3660-CD) (human, UniProt P16070 21-220); assay: as above
T18 construct: Bought recombinant protein; Fc part of the bought chimera not given

[19] = biological target: T19, rHuman Erythropoietin R/Fc Chimera, CF (R&D Systems Cat#963-ER) (human, UniProt P19235 25-250); assay: as above
T19 construct: Bought recombinant protein; also called EPO R; EPO R/Fc; Fc part of the bought chimera not given
T19 sequence (looked up): T2 sequence (looked up)

B1: Fab VH1-46_IGHD6-13*01_IGHJ4*01 & B3_IGKJ1*01 (Fab, V domains shown)
VH: QVQLVQSGAEVKKPGASVKVSCKASGYTFTSYYMHWVRQAPGQGLEWMGIINPSGGSTSYAQKFQGRVTMTRDTSTSTVYMELSSLRSEDTAVYYCAREGYSSSWYDYFDYWGQGTLVTVSS
VL: not shown
notes: Germline Fab made in E. coli; VH was cloned into Plasmid A (CH1, His6 and Flag tags) and the kappa VL into Plasmid C (kappa CL)
B1 showed an ECL signal [1] of 491, an ECL signal [2] of 7750 and an ECL signal [3] of 536. It also gave an ECL signal [4] of 715.

B2: Fab VH4-34_IGHD7-27*01_IGHJ4*01 & L5_IGKJ1*01 (Fab, V domains shown)
VH: QVQLQQWGAGLLKPSETLSLTCAVYGGSFSGYYWSWIRQPPGKGLEWIGEINHSGSTNYNPSLKSRVTISVDTSKNQFSLKLSSVTAADTAVYYCARANWGDYFDYWGQGTLVTVSS
VL: DIQMTQSPSSVSASVGDRVTITCRASQGISSWLAWYQQKPGKAPKLLIYAASSLQSGVPSRFSGSGSGTDFTLTISSLQPEDFATYYCQQANSFPPWTFGQGTKVEIKR
notes: Germline library Fab expressed in E. coli; VH was cloned into Plasmid A, which adds CH1 with His6 and Flag tags
Work on B2 yielded an ECL signal [5] of 653 and an ECL signal [6] of 694.

B3: Fab VH1-46_IGHD3-10*01_IGHJ4*01 & B3_IGKJ1*01 (Fab, V domains shown)
VH: QVQLVQSGAEVKKPGASVKVSCKASGYTFTSYYMHWVRQAPGQGLEWMGIINPSGGSTSYAQKFQGRVTMTRDTSTSTVYMELSSLRSEDTAVYYCAREYYYGSGSYYNDYFDYWGQGTLVTVSS
VL: not shown
notes: Tested as a Fab made in E. coli; VH was cloned into Plasmid A (CH1 constant region, His6 and Flag tags); The kappa VL was cloned into Plasmid C (kappa CL)
In the case of B3, the ECL signal [7] is reported as 273, the ECL signal [8] is reported as 392 and the ECL signal [9] is reported as 340. It also gave an ECL signal [10] of 278.

B4: Fab VH5-51_IGHD5-18*01>3_IGHJ4*01 G100K/G104T & V3-4_IGLJ1*01 (Fab, V domains shown)
VH: EVQLVQSGAEVKKPGESLKISCKGSGYSFTSYWIGWVRQMPGKGLEWMGIIYPGDSDTRYSPSFQGQVTISADKSISTAYLQWSSLKASDTAMYYCARRKYSYTYDYFDYWGQGTLVTVSS
VL: QTVVTQEPSFSVSPGGTVTLTCGLSSGSVSTSYYPSWYQQTPGQAPRTLIYSTNTRSSGVPDRFSGSILGNKAALTITGAQADDESDYYCVLYMGSGISYVFGTGTKVTVL
notes: Tested as a Fab; The constant parts are the same as for the parent Fab (CH1 with His6/Flag tags, lambda CL); also called KT double mutant; H:KT
For B4, the ECL signal/noise ratio [11] was 1.7, the ECL signal/noise ratio [12] was 1.6 and the ECL signal/noise ratio [13] was 1.5. For the same binder, the ECL signal/noise ratio [14] was 1.7, the ECL signal/noise ratio [15] was 76.9 and the ECL signal/noise ratio [16] was 1.7. It also gave an ECL signal/noise ratio [17] of 2, an ECL signal/noise ratio [18] of 1.4 and an ECL signal/noise ratio [19] of 1.7.
